Laboratory results taken from article PMC10504544, “1-deoxy-D-xylulose-5-phosphate synthase from Pseudomonas aeruginosa and Klebsiella pneumoniae reveals conformational changes upon cofactor binding” (The Journal of Biological Chemistry, 2023).

Key:
[1] = substrate: CC(=O)C(=O)O; assay: steady-state kinetics (Km), IspC-coupled assay; type: biochemical, Pseudomonas aeruginosa; conditions: ThDP, Mg2+
[2] = substrate: O=CC(O)COP(=O)(O)O; assay: steady-state kinetics (Km), IspC-coupled assay; type: biochemical, Pseudomonas aeruginosa; conditions: ThDP, Mg2+

B1: 1-deoxy-D-xylulose-5-phosphate synthase (paDXPS) (Pseudomonas aeruginosa PAO1) (protein)
chain: MPKTLHEIPRERPATPLLDRASSPAELRRLGEADLETLADELRQYLLYTVGQTGGHFGAGLGVVELTIALHYVFDTPDDRLVWDVGHQAYPHKILTERRELMGTLRQKNGLAAFPRRAESEYDTFGVGHSSTSISAALGMAIAARLQGKERKSVAVIGDGALTAGMAFEALNHASEVDADMLVILNDNDMSISHNVGGLSNYLAKILSSRTYSSMREGSKKVLSRLPGAWEIARRTEEYAKGMLVPGTLFEELGWNYIGPIDGHDLPTLVATLRNMRDMKGPQFLHVVTKKGKGFAPAELDPIGYHAITKLEAPGSAPKKTGGPKYSSVFGQWLCDMAAQDARLLGITPAMKEGSDLVAFSERYPERYFDVAIAEQHAVTLAAGMACEGMKPVVAIYSTFLQRAYDQLIHDVAVQHLDVLFAIDRAGLVGEDGPTHAGSFDISYLRCIPGMLVMTPSDEDELRKLLTTGYLFDGPAAVRYPRGSGPNHPIDPDLQPVEIGKGVVRRRGGRVALLVFGVQLAEAMKVAESLDATVVDMRFVKPLDEALVRELAGSHELLVTIEENAVMGGAGSAVGEFLASEGLEVPLLQLGLPDYYVEHAKPSEMLAECGLDAAGIEKAVRQRLDRQ
- Km [1]: 184 ± 25 µM
- Km [2]: 357 ± 77 µM
